According to PMC2756588:

Columns and labels:
Test in all cases: SPOT array
Abp1, P15891 = target: T1, Abp1, P15891; settings: median of control spots 935
T1 sequence (P15891 535-592, looked up): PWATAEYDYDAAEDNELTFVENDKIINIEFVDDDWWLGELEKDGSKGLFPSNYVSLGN

Bbc1, P47068 = target: T2, Bbc1, P47068; settings: median of control spots 796
T2 sequence (P47068 1-78, looked up): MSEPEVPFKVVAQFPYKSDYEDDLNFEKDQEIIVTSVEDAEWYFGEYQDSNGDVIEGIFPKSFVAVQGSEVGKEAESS

Bem1-1, P29366 = settings: median of control spots 4282
Chain of Bem1-1, P29366 (P29366 55-141): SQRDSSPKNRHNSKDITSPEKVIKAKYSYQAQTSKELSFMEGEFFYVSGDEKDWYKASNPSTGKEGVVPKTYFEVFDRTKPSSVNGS

Bem1-2, P29366 = settings: median of control spots 4347
Chain of Bem1-2, P29366 (P29366 139-227): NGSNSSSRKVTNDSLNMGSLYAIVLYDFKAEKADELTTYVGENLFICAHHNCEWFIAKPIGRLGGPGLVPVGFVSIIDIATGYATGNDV

Boi1, P38041 = target: T3, Boi1, P38041; settings: median of control spots 1162
T3 sequence (P38041 1-86, looked up): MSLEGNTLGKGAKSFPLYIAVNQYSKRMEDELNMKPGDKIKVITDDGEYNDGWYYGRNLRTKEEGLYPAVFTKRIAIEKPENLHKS

Boi2, P39969 = target: T4, Boi2, P39969; settings: median of control spots 1161
T4 sequence (P39969 32-116, looked up): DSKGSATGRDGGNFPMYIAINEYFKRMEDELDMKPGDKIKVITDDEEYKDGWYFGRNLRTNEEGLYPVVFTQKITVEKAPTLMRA

Bud14, P27637 = target: T5, Bud14, P27637; settings: median of control spots 956
T5 sequence (P27637 247-328, looked up): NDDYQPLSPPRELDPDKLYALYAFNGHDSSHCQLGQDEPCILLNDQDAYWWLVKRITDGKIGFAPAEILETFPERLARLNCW

Bzz1-1, P38822 = target: T6, Bzz1-1, P38822; settings: median of control spots 4446
T6 sequence (P38822 478-572, looked up): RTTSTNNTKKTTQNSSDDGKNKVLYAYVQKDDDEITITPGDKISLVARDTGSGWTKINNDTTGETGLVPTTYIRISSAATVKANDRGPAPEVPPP

Bzz1-2, P38822 = target: T7, Bzz1-2, P38822; settings: median of control spots 4538
T7 sequence (P38822 568-633, looked up): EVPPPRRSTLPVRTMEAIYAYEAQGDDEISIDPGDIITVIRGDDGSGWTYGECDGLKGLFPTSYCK

Cdc25, P04821 = target: T8, Cdc25, P04821; settings: median of control spots 969
T8 sequence (P04821 50-136, looked up): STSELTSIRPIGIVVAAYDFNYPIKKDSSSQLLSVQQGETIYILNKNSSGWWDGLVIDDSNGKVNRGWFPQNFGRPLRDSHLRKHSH

Cyk3, Q07533 = target: T9, Cyk3, Q07533; settings: median of control spots 1451
T9 sequence (Q07533 1-83, looked up): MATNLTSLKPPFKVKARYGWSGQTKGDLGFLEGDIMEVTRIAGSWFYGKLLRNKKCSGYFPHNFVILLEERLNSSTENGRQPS

Fus1, P11710 = target: T10, Fus1, P11710; settings: median of control spots 1200
T10 sequence (P11710 432-512, looked up): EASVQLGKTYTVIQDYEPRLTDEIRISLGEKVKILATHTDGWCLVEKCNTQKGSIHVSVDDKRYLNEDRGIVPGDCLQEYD

GST = settings: median of control spots 978
Hof1, Q05080 = target: T11, Hof1, Q05080; settings: median of control spots 4086
T11 sequence (Q05080 590-669, looked up): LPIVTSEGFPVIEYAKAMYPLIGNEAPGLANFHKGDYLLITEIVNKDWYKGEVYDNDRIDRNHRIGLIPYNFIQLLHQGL

Hse1, P38753 = target: T12, Hse1, P38753; settings: median of control spots 1727
T12 sequence (P38753 208-285, looked up): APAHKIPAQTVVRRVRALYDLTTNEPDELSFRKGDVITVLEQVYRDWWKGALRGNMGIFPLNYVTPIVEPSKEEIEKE

Lsb1, P53281 = target: T13, Lsb1, P53281; settings: median of control spots 388
T13 sequence (P53281 45-122, looked up): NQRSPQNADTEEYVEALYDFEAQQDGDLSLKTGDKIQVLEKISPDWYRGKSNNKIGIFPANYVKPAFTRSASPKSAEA

Lsb3, P43603 = target: T14, Lsb3, P43603; settings: median of control spots 406
T14 sequence (P43603 385-451, looked up): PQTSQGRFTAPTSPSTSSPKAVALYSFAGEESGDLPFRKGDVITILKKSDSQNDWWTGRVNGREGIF

Lsb4, P32793 = target: T15, Lsb4, P32793; settings: median of control spots 397
T15 sequence (P32793 402-468, looked up): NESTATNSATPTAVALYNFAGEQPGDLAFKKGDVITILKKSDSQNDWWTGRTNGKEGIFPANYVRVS

Myo3, P36006 = settings: median of control spots 468
Myo5, Q04439 = target: T16, Myo5, Q04439; settings: median of control spots 471
T16 sequence (Q04439 1072-1160, looked up): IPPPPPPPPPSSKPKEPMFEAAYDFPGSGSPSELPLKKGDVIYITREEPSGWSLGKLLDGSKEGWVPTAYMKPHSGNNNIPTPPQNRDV

Nbp2, Q12163 = target: T17, Nbp2, Q12163; settings: median of control spots 357
T17 sequence (Q12163 103-180, looked up): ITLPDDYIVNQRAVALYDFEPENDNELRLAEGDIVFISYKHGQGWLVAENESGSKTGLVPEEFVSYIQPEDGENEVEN

Pex13, P80667 = target: T18, Pex13, P80667; settings: median of control spots 1341
T18 sequence (P80667 295-386, looked up): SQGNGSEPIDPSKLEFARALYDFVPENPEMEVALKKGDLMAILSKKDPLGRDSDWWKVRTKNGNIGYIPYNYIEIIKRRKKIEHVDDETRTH

Pin3, Q06449 = target: T19, Pin3, Q06449; settings: median of control spots 2171
T19 sequence (Q06449 53-122, looked up): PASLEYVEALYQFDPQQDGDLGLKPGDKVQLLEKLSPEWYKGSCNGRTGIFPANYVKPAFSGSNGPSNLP

Rvs167, P39743 = settings: median of control spots 2707
Chain of Rvs167, P39743 (P39743 419-482): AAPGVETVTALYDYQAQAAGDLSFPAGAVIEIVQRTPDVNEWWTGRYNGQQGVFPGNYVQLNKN

Sho1, P40073 = settings: median of control spots 1148
Chain of Sho1, P40073 (P40073 287-367): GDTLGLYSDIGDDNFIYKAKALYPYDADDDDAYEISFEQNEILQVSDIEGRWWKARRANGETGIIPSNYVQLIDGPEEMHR

Sla1-2, P32790 = target: T20, Sla1-2, P32790; settings: median of control spots 712
T20 sequence (P32790 60-140, looked up): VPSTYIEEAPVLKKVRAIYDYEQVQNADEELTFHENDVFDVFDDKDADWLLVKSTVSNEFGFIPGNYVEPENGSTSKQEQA

Sla1-3, P32790 = target: T21, Sla1-3, P32790; settings: median of control spots 5475
T21 sequence (P32790 344-424, looked up): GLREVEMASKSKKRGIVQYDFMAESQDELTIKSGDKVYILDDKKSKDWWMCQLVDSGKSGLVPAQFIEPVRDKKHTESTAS

Binder	SPOT intensity (Abp1, P15891)	SPOT intensity (Bbc1, P47068)	SPOT intensity (Bem1-1, P29366)	SPOT intensity (Bem1-2, P29366)	SPOT intensity (Boi1, P38041)	SPOT intensity (Boi2, P39969)	SPOT intensity (Bud14, P27637)	SPOT intensity (Bzz1-1, P38822)	SPOT intensity (Bzz1-2, P38822)	SPOT intensity (Cdc25, P04821)	SPOT intensity (Cyk3, Q07533)	SPOT intensity (Fus1, P11710)	SPOT intensity (GST)	SPOT intensity (Hof1, Q05080)	SPOT intensity (Hse1, P38753)	SPOT intensity (Lsb1, P53281)	SPOT intensity (Lsb3, P43603)	SPOT intensity (Lsb4, P32793)	SPOT intensity (Myo3, P36006)	SPOT intensity (Myo5, Q04439)	other results
TKFRISLGLPVGAIM	289	43	0	0	1	0	6	0	2	108	0	32	0	0	8	44	28	46	69	14	SPOT intensity (Nbp2, Q12163): 159; SPOT intensity (Pex13, P80667): 29; SPOT intensity (Pin3, Q06449): 65; SPOT intensity (Rvs167, P39743): 0; SPOT intensity (Sho1, P40073): 367; SPOT intensity (Sla1-2, P32790): 9; SPOT intensity (Sla1-3, P32790): 3
SKAKRPKFLLDLQIK	78	48	0	0	2	0	6	1	1	26	4	3	2	2	2	7	2	5	6	0	SPOT intensity (Nbp2, Q12163): 0; SPOT intensity (Pex13, P80667): 5; SPOT intensity (Pin3, Q06449): 4; SPOT intensity (Rvs167, P39743): 0; SPOT intensity (Sho1, P40073): 114; SPOT intensity (Sla1-2, P32790): 2; SPOT intensity (Sla1-3, P32790): 19
KKIRLIFTYPSTVGR	196	277	0	0	61	13	9	2	2	163	10	73	0	0	4	50	20	28	41	12	SPOT intensity (Nbp2, Q12163): 258; SPOT intensity (Pex13, P80667): 12; SPOT intensity (Pin3, Q06449): 31; SPOT intensity (Rvs167, P39743): 0; SPOT intensity (Sho1, P40073): 253; SPOT intensity (Sla1-2, P32790): 6; SPOT intensity (Sla1-3, P32790): 8
MKRSRPSRSIPYTTP	32	25	0	39	3	2	7	1	29	9	1	5	0	0	14	0	1	6	5	2	SPOT intensity (Nbp2, Q12163): 0; SPOT intensity (Pex13, P80667): 10; SPOT intensity (Pin3, Q06449): 34; SPOT intensity (Rvs167, P39743): 6; SPOT intensity (Sho1, P40073): 54; SPOT intensity (Sla1-2, P32790): 6; SPOT intensity (Sla1-3, P32790): 35
